Measurements published in the supplement of paper PMC12042874.
± gives the uncertainty stated by the source.

Test: amyloid nucleation score (Sup35N fusion, yeast selection) (log enrichment); library NNK1; higher = more nucleation; inactive = no reads after selection
Procedure, shortened: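 The nucleation score equals the log enrichment of output over input reads from DiMSum, centred on the mode score of non-aggregating sequences. It was computed only for sequences with 100 or more input reads. The reads came from Illumina sequencing of plasmid inserts from psi-negative yeast expressing Sup35N fused to peptides of 20 random codons, induced with 100 μM copper sulfate for 24 hours and grown 7 days at 30°C without adenine and uracil.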

| Substance | amyloid nucleation score |
| --- | --- |
| HRRAFRQVVVTAGPKQASPM | 0.001 ± 0.56 |
| YLSMFVWTGGNM | 2.08 ± 0.31 |
| HSHKGGWEWVSWLRREYWIA | 0.618 ± 0.47 |
| SLDYLIFPVLDDGKKYMFVM | 1.33 ± 0.46 |
| YRGWVVQGIHLKFSCFAELR | 0.333 ± 0.97 |
| LCNFDSGFGNYGLL | -0.17 ± 0.52 |
| LCLDVLSGLCYFYLQ | 0.622 ± 0.59 |
| TLLSVTYSCIRMPVPMAYRS | 4.42 ± 0.085 |
| AQQGIYCRCTVCGQ | 1.41 ± 0.28 |
| LDYLTTRKANVHRGCVALML | -1.27 ± 0.78 |
| CRRIWA | -0.377 ± 0.34 |
| GQQLCVIFYSTCDSYKMLSD | 3.26 ± 0.089 |
| AFLGYNKIVGLNLAVLNTVG | inactive |
| IPKVRTRVLGIISTTSLLGG | 0.037 ± 0.97 |
| VWSKVLGSGRWSVVRGRAWR | 1.63 ± 0.21 |
| IDMCYWISVPAKNVHVIDIP | 1.29 ± 0.6 |
| DWNSNPPHSASAGLPLRFWK | inactive |
| YNREWYYIWLLREFDVRKHS | 1.43 ± 0.53 |
| VRMVQEMFRRRTLEELAMGA | 0.447 ± 0.68 |
| SCAAILEDVVHSAHILYLSH | -0.92 ± 0.96 |
| ISINQIMFAKGPYFERLAEN | 4.07 ± 0.096 |
| WKGLRYLNFYFTE | 4.52 ± 0.059 |
| IQGGKNYRKQDHTRHVTTGT | -1.37 ± 2.4 |
| SSDSLYTYDMDWAWAGTP | 0.281 ± 0.38 |
| VPMLDLGKVYNRSACP | inactive |

| Substance | amyloid nucleation score |
| --- | --- |
| GIYSFGLCVGDIS | -0.623 ± 0.34 |
| ADFFESEQVHYKSELAKNHG | 0.049 ± 0.69 |
| AAWMWWTLLSTY | -0.377 ± 0.37 |
| HCHFIFGGMIGS | -0.144 ± 1.2 |
| EDNRKIRRVMSIQS | 0.063 ± 0.57 |
| GQNLGRSRLGNVYRGPCGNC | -0.095 ± 1.1 |
| SSMWFYLRM | -0.595 ± 1.9 |
| KKDSTYSRSRLDPFRLSVSV | -0.14 ± 0.5 |
| SILMIMMTLSSVQRLMLTGS | -0.161 ± 0.71 |
| ISSYTCCFYSYHQSHVMPLG | 5.848 ± 0.051 |
| RIVQLFSRRNMRCFFIKE | 3.07 ± 0.09 |
| ASAMLMHF | 0.716 ± 0.2 |
| VLLRKVKRLNRYHMSTGGL | inactive |
| FNHMLSMVGSRVCYLAMSFV | 0.17 ± 0.58 |
| CLKHLWLRQSKEKVD | inactive |
| QHTTVRFRTGDKRNQFLSSI | -0.843 ± 1.1 |
| DDMVPNWARVTCLSQNWL | 0.385 ± 0.54 |
| TTVLRGLKTP | -0.825 ± 1.5 |
| PYLGNLNSLQGFYLS | 0.176 ± 0.78 |
| SSGRRWWTFQHHQIYLKVRS | 1.09 ± 0.59 |
| DSLGGSKSCGSKL | 0.891 ± 0.97 |
| ILRCRGNALNAYWRGSFNR | 4.59 ± 0.078 |
| CTEFRFF | 0.314 ± 0.47 |
| VKYLVIL | -0.618 ± 0.47 |
| WDALLPLPAEFAYRATTMHA | 0.444 ± 1.1 |

| Substance | amyloid nucleation score |
| --- | --- |
| SYFFGACCVGMCRLWNLFYS | 0.857 ± 0.52 |
| QKWNMFVSSWVYDRRRTRGC | 0.301 ± 1.1 |
| AYLADCFPDVSTNWVRAISA | -0.337 ± 0.29 |
| RKEISGLMVLLEANLVTWFV | -0.085 ± 0.3 |
| RYRRFCFALVYMRKNI | -0.184 ± 0.42 |
| SSLKVLIPYSCYHFV | 2.76 ± 0.1 |
| IDEVEGIRRFGLWELRLVCP | -0.225 ± 0.28 |
| GIGFNHVSHLVKENS | -0.192 ± 0.97 |
| CENVIEFNENVKG | 0.503 ± 0.29 |
| YVWIRIVVVLVRRMCNTDTQ | inactive |
| VRMDHIRTKPPLHAIVAPQP | -1.68 ± 2.4 |
| PHGKRPGHFLKVLLAFSWRW | 0.038 ± 0.56 |
| PFFRVVY | inactive |
| MFSSVLIWKY | 1.12 ± 0.56 |
| NRHVSRRRHSEISLVRKGGA | -0.313 ± 0.33 |
| VLDVVVCSSWGDLKRNLRPC | 3.29 ± 0.11 |
| ARYYIVREGSEKCDLLTGRG | 0.004 ± 0.61 |
| GYGIGDGRVHTQNKVGCYGG | 1.33 ± 0.66 |
| NAVSIRGLRVDRQN | 0.112 ± 0.55 |
| ETSSPLLEGG | 0.554 ± 0.55 |
| SCNSIGTCTLFKLHSLLS | 0.701 ± 0.51 |
| RRRYSC | -0.307 ± 0.42 |
| ALVFSALLVFRCGDCAASKA | 4.25 ± 0.062 |
| FLILVSLGELGVTAI | inactive |
| KLFGTAYS | -0.847 ± 0.96 |

| Substance | amyloid nucleation score |
| --- | --- |
| GYGAKWVLVVS | 1.25 ± 0.47 |
| CRIVKARDGC | -1.23 ± 2.4 |
| QWVSMTEVYFVVNKRWMCSR | -1.39 ± 1.6 |
| SALRTCKFN | 0.826 ± 0.56 |
| SGNCSVSW | 0.755 ± 0.97 |
| CLCLKVFLQKVVRGCNR | 1.01 ± 0.29 |
| TFFCTYTYLWLICIIGQYYF | 3.44 ± 0.11 |
| VCHAVRISISSSASTLAE | -0.122 ± 0.33 |
| SMLDNDTSNMLEMPIGMYVA | inactive |
| FETYFEHYWGCVTYSSMFWS | 2.45 ± 0.14 |
| SIFVFRLYFLYGLV | 0.606 ± 0.44 |
| RIYKSWSFRTLRLPEC | 2.25 ± 0.1 |
| TYSGYFVLAIISPRLDRLFT | -1.1 ± 0.58 |
| IFCGRIKQCSLASHCKLEWG | 0.69 ± 0.41 |
| VRLCLVLLESDLLTGTVGIG | -1.02 ± 1.2 |
| RFDSFAMVYDNMWVRCLNVR | -0.303 ± 0.53 |
| EYFRSTCRRATLSDPSMMHH | 0.185 ± 0.35 |
| ALLPKFCDIKFVVEKNGENR | 0.181 ± 1.4 |
| GVMGYFVC | -0.405 ± 0.27 |
| RLFRTLGSDRGLFKEYF | 0.734 ± 0.84 |
| WRSSHINLGGIFRLSHTIYC | -0.16 ± 0.38 |
| QAHLNLVSRIIIMWS | 0.067 ± 0.79 |
| HYQMLDAISRSSVYVLSKSR | -0.239 ± 0.29 |
| TGLLSR | 1.33 ± 0.9 |
| LIIVRSMSNDGSIVGSQAWP | 8.152 ± 0.073 |

| Substance | amyloid nucleation score |
| --- | --- |
| RGNLGLDLWICSGYRMVMFQ | -0.784 ± 0.3 |
| MGLSLPSFW | -0.516 ± 1.7 |
| TVNYTCYYGYIIFGYASSVK | 3.63 ± 0.076 |
| QAFISFVVSFRWHLTCRS | 1.18 ± 0.64 |
| GMDCH | -0.175 ± 0.25 |
| YAITRSAVICSNLALNMEC | 2.09 ± 0.23 |
| DSSHVRLWQYWIMWMLVVNA | 1.06 ± 0.39 |
| IFAMV | inactive |
| LDVRAIRYILK | -0.252 ± 1.4 |
| TLRCDFLPRNKF | -0.595 ± 1.4 |
| GAGIENPSASVIMKREWEVL | 0.382 ± 0.44 |
| VFLVGMFLIRRVAVN | 0.72 ± 0.87 |
| ISCQQSE | -1.57 ± 2.4 |
| GCGRGMLLGFAPWITCPWMS | 0.971 ± 0.49 |
| LCALVRICFPMADYEGRGGC | 2.33 ± 0.14 |
| PDDSKFSNV | 0.902 ± 0.88 |
| GFSMTKCAYTNTH | 1.68 ± 0.17 |
| SKGFDDESTAGSFFKLMLLY | -1.9 ± 2.4 |
| PLNKSEAESLFKLLTLLDRN | -1.39 ± 0.46 |
| NNMSIWGMTVTEYLFITNMN | 0.643 ± 0.53 |
| NGTFVLDVRIRSRRSERPLG | 4.09 ± 0.06 |
| FSTFYY | inactive |
| VGRHALGTSRGKRL | -0.307 ± 0.67 |
| GGFFALTYVWSHVHRWS | inactive |
| FLYSSLFDKVNCCNRPPVSS | -0.014 ± 0.7 |

| Substance | amyloid nucleation score |
| --- | --- |
| KTHQLTSRTEWLYGVGVSAQ | -1.78 ± 2.4 |
| TIGLCAMYSAARLLV | 0.717 ± 0.93 |
| VGPAANHIGHIVRWCRPGGP | 0.33 ± 0.5 |
| RSCLQGFGIFAMAIMD | 0.367 ± 0.79 |
| WCMGHNSYYVKEIVIDVLWL | inactive |
| HFCFGC | 7.377 ± 0.062 |
| LWFNSDLIE | -0.369 ± 0.35 |
| CFNVYWLFAIGGYGMRLRSD | -1.04 ± 1.1 |
| KIVSEFCL | 0.36 ± 0.36 |
| GFFLSPLVRIISMTEMKVMK | 0.571 ± 1.2 |
| DRRIEYVVDLGSSCGMTTHV | 0.049 ± 0.41 |
| LFYVMWWMAGVGLRRGYWAN | inactive |
| NESRM | 1.08 ± 0.58 |
| RWTEKGK | -0.332 ± 1.9 |
| YWPGFSNRFR | 0.397 ± 0.75 |
| FSRNAAYMIICSTGRRKFWH | 3.75 ± 0.074 |
| FLRALCSVGSRHTTPAFDYG | 0.351 ± 0.43 |
| QNTSEYSLRRERSR | -0.341 ± 0.5 |
| FCSRTRMTICVLCYIHLQGR | 0.521 ± 0.29 |
| GLYYSFRFYTFSVYRALRGS | -0.392 ± 1.1 |
| FLNVARQV | 0.101 ± 1.4 |
| ELVISMGRLWVG | 2.02 ± 0.17 |
| LKYFYR | 0.44 ± 0.34 |
| NNFSSNWWLELWYRYFVYPI | 0.666 ± 0.75 |
| GKRSDIVLMLLIEMGHMLSQ | 3.1 ± 0.13 |

| Substance | amyloid nucleation score |
| --- | --- |
| FALKIVGVVPVAVGMTIDDW | 0.052 ± 0.85 |
| NDDRFSLLCGRGRSGLSEWC | inactive |
| ILKEIMIGGRDRTDDWKSHG | -1.3 ± 0.8 |
| HSAALWIVWR | -0.358 ± 0.62 |
| IGDRNVNLGVQVVVMKE | 7.031 ± 0.048 |
| LAWTMSQQIGETRRGAEMCT | 0.106 ± 0.33 |
| HYIPRRN | -0.016 ± 1.7 |
| TIYTSSGVVMALVHRLHLVA | -1.1 ± 0.68 |
| YVLSFYHQVGPALGFIRQWI | -1.04 ± 0.69 |
| DAMFLL | -0.358 ± 0.31 |
| FTFKWMGSPWLWR | 0.485 ± 1.2 |
| DQSWSREWPCVLVHHVHYKD | 0.626 ± 0.28 |
| TIGPSGNLEGCVLSVGASNI | -1.35 ± 1.2 |
| YARWVGVSKVRNTQICNSMR | -0.543 ± 0.79 |
| LVNIHVIQKAFVGTVASSKV | 5.07 ± 0.067 |
| SSRDGTIRRGWIWVDVRVKS | 0.142 ± 0.48 |
| DWVVFWIRSFILSPPRAHQN | 0.025 ± 0.41 |
| FTRDVYRWKYPNYLVKYSTP | -0.199 ± 0.85 |
| DSEDSNLSCLLYTQC | 0.153 ± 0.16 |
| RNCWGANLFDMWIRKSFR | 0.067 ± 0.77 |
| YYPVKSFELGWSHLGGKHWA | 1.34 ± 0.7 |
| LLLRSAAESRVSLDEEARGT | 0.191 ± 0.64 |
| LCMKFSAVFWELKRV | 0.498 ± 0.52 |
